Measured values: article PMC6459870

Experiments:
[1] = target: Xenopus laevis CENP-E-GFP construct (1–473 aa), truncated CENP-E motor (Xenopus laevis); experiment: fluorescence microscopy of microtubules on protein-coated beads (MT wall-to-end transition assay); GFP-tagged protein held on coverslip-immobilized 0.9 µm streptavidin beads via biotinylated anti-GFP antibody, one protein per bead; HiLyte647-labeled GMPCPP-stabilized MTs in solution; MTs added with 0.1 mM AMP-PNP, then imaging buffer with ATP; BRB80-based buffer; 32 °C; epifluorescence
[2] = target: Human Broccoli Ndc80-GFP complex (human) (UniProt O14777); experiment: fluorescence microscopy of microtubules on protein-coated beads (dynamic MT end-coupling assay); beads coated with Ndc80-GFP only (no CENP-E) via anti-GFP antibody; GMPCPP-stabilized MT seeds, then unlabeled soluble tubulin (6 µM) with 1 mM Mg-GTP; 32 °C
[3] = target: Human Broccoli Ndc80-GFP complex (human) (UniProt O14777)

Sequence of UniProt O14777 (O14777 whole entry, looked up, one chain of several): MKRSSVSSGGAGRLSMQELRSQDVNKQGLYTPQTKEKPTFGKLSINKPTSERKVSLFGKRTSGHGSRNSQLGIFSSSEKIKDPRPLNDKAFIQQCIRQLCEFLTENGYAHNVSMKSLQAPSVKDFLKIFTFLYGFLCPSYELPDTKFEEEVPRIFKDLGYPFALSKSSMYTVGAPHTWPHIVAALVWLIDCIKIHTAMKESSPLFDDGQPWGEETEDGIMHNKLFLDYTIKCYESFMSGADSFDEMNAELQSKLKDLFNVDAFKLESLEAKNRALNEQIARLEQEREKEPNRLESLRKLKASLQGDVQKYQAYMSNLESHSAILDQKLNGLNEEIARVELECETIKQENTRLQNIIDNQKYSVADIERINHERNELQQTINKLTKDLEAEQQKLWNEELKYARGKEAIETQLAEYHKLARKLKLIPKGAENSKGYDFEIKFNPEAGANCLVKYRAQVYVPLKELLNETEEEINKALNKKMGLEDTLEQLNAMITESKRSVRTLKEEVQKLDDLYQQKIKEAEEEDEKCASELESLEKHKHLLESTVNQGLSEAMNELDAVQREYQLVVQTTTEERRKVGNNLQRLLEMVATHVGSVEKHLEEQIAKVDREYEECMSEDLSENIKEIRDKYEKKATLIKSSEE

MT end-retention time [1]: 1.1 min | percent of MT plus-ends retained at the bead [1]: 24% | percent of MT segments attached via their ends [2]: 3% | MT end-retention time on beads coated with CENP-E motor and Ndc80 Broccoli (wall-to-end transition assay) [3]: 18.1 min | percent of MT plus-ends retained on beads coated with CENP-E motor and Ndc80 Broccoli (wall-to-end transition assay) [3]: 80%
Substance: Microtubules polymerised from bovine brain tubulin (from UniProt Q6B856 1-445) (complex)
Kaplan–Meier survival of MT end-attachments on beads coated with CENP-E motor and Ndc80 Broccoli [3]: > 28 min
